According to patent US11026972B2, “Methods for generating macrophages with enhanced cancer phagocytosis” (Georgia State University Research Foundation, Inc., priority 2016, dated 2021):

B1: IL-17: recombinant murine cytokine interleukin IL-17 (also known as IL-17A), PeproTech (protein, UniProt Q62386 26-158, looked up)
Interleukin-17A: AAIIPQSSACPNTEAKDFLQNVKVNLKVFNSLGAKVSSRRPSDYLNRSTSPWTLHRNEDPDRYPSVIWEAQCRHQRCVNAEGKLDHHMNSVLIQQEILVLKREPESCPFTFRVEKMLVGVGCTCVASIVRQAA

Columns and labels:
[1] = tested on: cell surface LRP1 and CRT on PEMs; experiment: Macrophage cell surface CRT and LRP1 by FACS; assay type: cell-based, mouse; details: after treatment with phagocytic activation factor
Method: FIGS. 6A-6D include data related to our investigation of possible phagocytic receptors on macrophages for phagocytosing healthy self-cells. […] PEM (unstimulated) phagocytosis toward apoptotic B16 cells was tested in the presence of same antibodies and RAP as in A. Error bars are ±SEM. ***P<0.001 vs. phagocytosis in the presence of control IgG. […] PEMs, with or without (ctl.) treatment with LPS, IL-17, IL-6, or PMA, were labeled for cell surface LRP1 and CRT followed by FACS. Increased and decreased expressions were marked by arrows. […] Activated PEM phagocytosis toward RBCs was tested in the presence of antibodies against SR-A, Fc receptor Cd16/32 (10 μg/mL of each), inhibitors against SR-B (BLT1, 5 μM), dectin (laminarin, 100 μg/mL), complement (heparin, 40 U/mL), and antibody against Cd11b (10 μg/mL). Error bars are ±SEM. ***P<0.001 vs. the respective control without inhibition. Data presented in each panel represent at least three independent experiments with n≥4, if applicable.

[2] = tested on: CFSE-labeled CD47^+ or CD47^− RBCs in recipient mice; experiment: RBC adoptive transfer and in vivo clearance of CFSE-labeled RBCs; design: species or system mouse; details: 24 h
Source text: FIGS. 2A-2E includes data related to macrophage phagocytosis in vivo assessed by adoptive transfer experiments. FIGS. 2A-C are illustrative graphs showing clearance of adoptively transferred CD47-positive (Cd47^+) or CD47-negative (Cd47^−) RBC in recipient mice. […] Error bars are ±SEM. **P<0.01, ***P<0.001 vs. WT mice clearance of Cd47^+ RBCs. […] Mice treated with DSS (1% for SIRPα^−/− mice, 2% for WT and Cd47^−/− mice) for 8 d (d8) were transfused with CFSE-RBCs followed by determination of RBC clearance after 24 h. FACS data of Cd47^+ RBCs and Cd47^− RBCs in different mice at 30 min and 24 h after transfer were selectively shown. Total RBC phagocytosis was calculated based on the rates of CFSE-RBC clearance and the fact that SIRPα^−/− mice eliminate both Cd47^− RBC and Cd47^+ RBC, whereas WT mice and Cd47^−/− mice eliminate only Cd47^− RBCs. […] Mice treated once with IL-17 (10 μg/kg, i.v.) were transfused with CFSE-labeled Cd47^+ or Cd47^− RBCs a day later. Error bars are ±SEM. **P<0.01, ***P<0.001 vs. control or the initial time point. Data presented in each panel represent at least three independent experiments with n≥4, if applicable.
Adoptive transfer and in vivo clearance: CD47-expressing (CD47^+) RBC freshly collected from WT or SIRPα^−/− mice, and CD47-null (CD47^−) RBC collected from CD47^−/− mice were labeled with carboxyfluorescein succinimidyl ester (CFSE). After washing, about 1×10^9 RBC suspended in 200 μl sterile PBS were transfused into recipient mice by intravenous (i.v.) injection. Blood samples (5 μl) were then collected 30 min after the blood transfusion and the CFSE-labeled RBC in the circulation was assessed by FACS analyses. Blood samples (5 μl each) were then collected at later time points to assess the clearance of CFSE-labeled RBC as compared to that found at 30 min. For each sample, at least 50,000 RBC were examined by FACS. […] Clearance of CFSE-labeled cells in the circulation and the spleen were analyzed by FACS analyses of blood samples and splenocytes. […]

[3] = tested on: B16 melanoma; experiment: B16 melanoma pulmonary metastases model; assay type: in vivo, mouse; details: SIRPα^−/− mice
Method: Mouse models of B16 melanoma: B16-F10 melanoma cells (American Type Culture Collection) were cultured in DMEM with 8% FBS. B16 melanoma pulmonary metastases were established by intravenous (i.v.) injection of B16 cells (5×10^5, >95% viability) suspended in 100 μl PBS through the tail vein. The mice were allowed to live to reach humane endpoints or sacrificed on day 15 post B16 inoculation for analyses of melanoma formation in the lungs and other organs. To test macrophage eradication of B16 in vivo, recombinant murine IL-17 (20 μg) was given a day after the B16 implantation and then again two additional administrations three and six days later (total 3 administrations). For SIRPα^−/− mice survived first B16 injection, B16 cells (5×10^5) were injected (i.v.) once again three months without further IL-17 administration. […] For serum treatment, WT mice with B16 inoculation were given serum samples (150 μl, every three days, 3×) derived from control mice or B16-eradicated SIRPα^−/− mice. In other experiments, 2×10^7 splenocytes from control mice or B16-eradicated SIRPα^−/− mice were transferred into WT mice. After 10 days, B16 cells were inoculated into the recipient mice and melanoma development was examined.

Row | Molecule | cell surface CRT or LRP1 on PEMs [1] | clearance of transferred CD47^+ and CD47^− RBCs ([2]; SIRPα^−/− mice, 1% DSS for 8 d or directly injected with IL-17) | clearance of transferred RBCs ([2]; mutant mice treated with IL-17 multiple times and a longer period (d1 and d3)) | B16 melanoma [3]
1 | lipopolysaccharide [LPS] | induced an increase in CRT |  |  | 
2 | B1 |  | ~50% | < 5% | eliminated B16 melanoma
